The values that follow come from patent publication US20230143604A1, “QW DOSING OF GIP RECEPTOR AGONIST PEPTIDE COMPOUNDS AND USES THEREOF” (TAKEDA PHARMACEUTICAL COMPANY LIMITED, priority 2020, published 2023).

Starred links: 1 amine or outer side, 2 acyl side, 3 side chain; linkers in the order of their positions; H or OH if unused. Non-standard residues stand in square brackets, D forms with d. Groups on a side chain read outwards from the residue. No end group written: not given here. *: point of attachment. C17 diacid = O=C(O)CCCCCCCCCCCCCCCC(=O)*; γGlu = O=C(O)[C@H](CCC(=O)[*:2])N[*:1]; NMeY = CN[C@@H](Cc1ccc(O)cc1)C(=O)O; AEEA = NCCOCCOCC(=O)O; Aib = CC(C)(N)C(=O)O

Assay [1] deals with T1, full-length human GIPR with an N-terminal FLAG tag (human, UniProt P48546 22-466).
T1 sequence (looked up): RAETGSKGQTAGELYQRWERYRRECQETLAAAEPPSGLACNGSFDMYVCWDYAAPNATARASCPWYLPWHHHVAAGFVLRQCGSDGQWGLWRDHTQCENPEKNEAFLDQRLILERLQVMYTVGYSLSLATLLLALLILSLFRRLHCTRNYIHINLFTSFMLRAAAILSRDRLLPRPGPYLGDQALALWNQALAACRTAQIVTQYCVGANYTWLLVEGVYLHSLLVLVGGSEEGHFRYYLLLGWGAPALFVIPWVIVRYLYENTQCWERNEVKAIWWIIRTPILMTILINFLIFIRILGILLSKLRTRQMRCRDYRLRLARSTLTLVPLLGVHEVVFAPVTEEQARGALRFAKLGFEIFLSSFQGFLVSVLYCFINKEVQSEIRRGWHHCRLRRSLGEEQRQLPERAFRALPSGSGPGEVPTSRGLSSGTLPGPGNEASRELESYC
The experiment in a line: cell-based or functional assay.

In assay [2] the target is full-length human GLP-1R with an N-terminal FLAG tag (human, UniProt P43220 24-463). In words: cell-based or functional assay.

B1: Compound No. 128 (peptide)
peptide: YXEGTFISDYSIAXDRXAQXDFVNWLLAQSPG
modifications: N-terminus H; Aib at 2,17,20; Lys(G5-C18 diacid) at 14; C-terminal OH
With B1, the “Human GIPR cAMP EC50, HEK293T” value in assay [1] is 0.0009 nM. In assay [2], the “Human GLP1R cAMP EC50, HEK293T” value came to 7.24 nM.

B2: Compound No. 133 (peptide)
peptide: H-Y[Aib]EGTFISDYSIALDKAAQ[Aib]K([AEEA-AEEA-γGlu-γGlu-C17 diacid])FVEWLLAQRG-OH
Consider B2, for which the “Human GIPR cAMP EC50, HEK293T” value in assay [1] is 0.0012 nM. Moreover, the “Human GLP1R cAMP EC50, HEK293T” value in assay [2] was found to be 58.9 nM.

B3: Compound No. 129 (peptide)
peptide: H-Y[Aib]EGTFISDYSI[Aib]LDKIAQQK([AEEA-AEEA-γGlu-γGlu-C17 diacid])FVEWLLAQRG-OH
SMILES: CC[C@H](C)[C@H](NC(=O)[C@H](CCCCN)NC(=O)[C@H](CC(=O)O)NC(=O)[C@H](CC(C)C)NC(=O)C(C)(C)NC(=O)[C@@H](NC(=O)[C@H](CO)NC(=O)[C@H](Cc1ccc(O)cc1)NC(=O)[C@H](CC(=O)O)NC(=O)[C@H](CO)NC(=O)[C@@H](NC(=O)[C@H](Cc1ccccc1)NC(=O)[C@@H](NC(=O)CNC(=O)[C@H](CCC(=O)O)NC(=O)C(C)(C)NC(=O)[C@@H](N)Cc1ccc(O)cc1)[C@@H](C)O)[C@@H](C)CC)[C@@H](C)CC)C(=O)N[C@@H](C)C(=O)N[C@@H](CCC(N)=O)C(=O)N[C@@H](CCC(N)=O)C(=O)N[C@@H](CCCCNC(=O)COCCOCCNC(=O)COCCOCCNC(=O)CC[C@H](NC(=O)CC[C@H](NC(=O)CCCCCCCCCCCCCCCC(=O)O)C(=O)O)C(=O)O)C(=O)N[C@@H](Cc1ccccc1)C(=O)N[C@H](C(=O)N[C@@H](CCC(=O)O)C(=O)N[C@@H](Cc1c[nH]c2ccccc12)C(=O)N[C@@H](CC(C)C)C(=O)N[C@@H](CC(C)C)C(=O)N[C@@H](C)C(=O)N[C@@H](CCC(N)=O)C(=O)N[C@@H](CCCNC(=N)N)C(=O)NCC(=O)O)C(C)C
Regarding B3, the “Human GIPR cAMP EC50, HEK293T” value in assay [1] was determined as 0.0004 nM. The “Human GLP1R cAMP EC50, HEK293T” value in assay [2] was determined as 115 nM.

B4: Compound No. 12 (peptide)
peptide: [NMeY][Aib]EGTFISDYSIAK([γGlu-γGlu-γGlu-C17 diacid])DR[Aib]AQ[Aib]NFVNWLLAQSPSSGAPPPS-NH2
In the case of B4, the “Human GIPR cAMP EC50, HEK293T” value in assay [1] is 0.0002 nM. Further, the “Human GLP1R cAMP EC50, HEK293T” value in assay [2] was 955 nM.

B5: Compound No. 130 (peptide)
peptide: H-Y[Aib]EGTFISDYSIALDK[Aib]AQQK([AEEA-AEEA-γGlu-γGlu-C17 diacid])FVEWLLAQRG-OH
SMILES: CC[C@H](C)[C@H](NC(=O)[C@H](CO)NC(=O)[C@H](Cc1ccc(O)cc1)NC(=O)[C@H](CC(=O)O)NC(=O)[C@H](CO)NC(=O)[C@@H](NC(=O)[C@H](Cc1ccccc1)NC(=O)[C@@H](NC(=O)CNC(=O)[C@H](CCC(=O)O)NC(=O)C(C)(C)NC(=O)[C@@H](N)Cc1ccc(O)cc1)[C@@H](C)O)[C@@H](C)CC)C(=O)N[C@@H](C)C(=O)N[C@@H](CC(C)C)C(=O)N[C@@H](CC(=O)O)C(=O)N[C@@H](CCCCN)C(=O)NC(C)(C)C(=O)N[C@@H](C)C(=O)N[C@@H](CCC(N)=O)C(=O)N[C@@H](CCC(N)=O)C(=O)N[C@@H](CCCCNC(=O)COCCOCCNC(=O)COCCOCCNC(=O)CC[C@H](NC(=O)CC[C@H](NC(=O)CCCCCCCCCCCCCCCC(=O)O)C(=O)O)C(=O)O)C(=O)N[C@@H](Cc1ccccc1)C(=O)N[C@H](C(=O)N[C@@H](CCC(=O)O)C(=O)N[C@@H](Cc1c[nH]c2ccccc12)C(=O)N[C@@H](CC(C)C)C(=O)N[C@@H](CC(C)C)C(=O)N[C@@H](C)C(=O)N[C@@H](CCC(N)=O)C(=O)N[C@@H](CCCNC(=N)N)C(=O)NCC(=O)O)C(C)C
With B5, the “Human GIPR cAMP EC50, HEK293T” value in assay [1] turned out to be 0.0003 nM. Moreover, the “Human GLP1R cAMP EC50, HEK293T” value in assay [2] was determined as 95.5 nM.

B6: Compound No. 126 (peptide)
peptide: [NMeY][Aib]EGTFISDYSI[Aib]LDR[Aib]AQ[Aib]K([AEEA-AEEA-γGlu-γGlu-C17 diacid])FVNWLLAQSPG-OH
modifications: N-terminus assumed
SMILES: CC[C@H](C)[C@H](NC(=O)[C@H](Cc1ccccc1)NC(=O)[C@@H](NC(=O)CNC(=O)[C@H](CCC(=O)O)NC(=O)C(C)(C)NC(=O)[C@H](Cc1ccc(O)cc1)NC)[C@@H](C)O)C(=O)N[C@@H](CO)C(=O)N[C@@H](CC(=O)O)C(=O)N[C@@H](Cc1ccc(O)cc1)C(=O)N[C@@H](CO)C(=O)N[C@H](C(=O)NC(C)(C)C(=O)N[C@@H](CC(C)C)C(=O)N[C@@H](CC(=O)O)C(=O)N[C@@H](CCCNC(=N)N)C(=O)NC(C)(C)C(=O)N[C@@H](C)C(=O)N[C@@H](CCC(N)=O)C(=O)NC(C)(C)C(=O)N[C@@H](CCCCNC(=O)COCCOCCNC(=O)COCCOCCNC(=O)CC[C@H](NC(=O)CC[C@H](NC(=O)CCCCCCCCCCCCCCCC(=O)O)C(=O)O)C(=O)O)C(=O)N[C@@H](Cc1ccccc1)C(=O)N[C@H](C(=O)N[C@@H](CC(N)=O)C(=O)N[C@@H](Cc1c[nH]c2ccccc12)C(=O)N[C@@H](CC(C)C)C(=O)N[C@@H](CC(C)C)C(=O)N[C@@H](C)C(=O)N[C@@H](CCC(N)=O)C(=O)N[C@@H](CO)C(=O)N1CCC[C@H]1C(=O)NCC(=O)O)C(C)C)[C@@H](C)CC
Regarding B6, in assay [1], the “Human GIPR cAMP EC50, HEK293T” value was 0.0004 nM. For the same molecule, the “Human GLP1R cAMP EC50, HEK293T” value in assay [2] came out at 30.9 nM.

B7: Compound No. 127 (peptide)
peptide: [NMeY][Aib]EGTFISDYSI[Aib]LDR[Aib]AQ[Aib]K([AEEA-AEEA-γGlu-γGlu-C17 diacid])FVNWLLAQRG-OH
modifications: N-terminus assumed
SMILES: CC[C@H](C)[C@H](NC(=O)[C@H](Cc1ccccc1)NC(=O)[C@@H](NC(=O)CNC(=O)[C@H](CCC(=O)O)NC(=O)C(C)(C)NC(=O)[C@H](Cc1ccc(O)cc1)NC)[C@@H](C)O)C(=O)N[C@@H](CO)C(=O)N[C@@H](CC(=O)O)C(=O)N[C@@H](Cc1ccc(O)cc1)C(=O)N[C@@H](CO)C(=O)N[C@H](C(=O)NC(C)(C)C(=O)N[C@@H](CC(C)C)C(=O)N[C@@H](CC(=O)O)C(=O)N[C@@H](CCCNC(=N)N)C(=O)NC(C)(C)C(=O)N[C@@H](C)C(=O)N[C@@H](CCC(N)=O)C(=O)NC(C)(C)C(=O)N[C@@H](CCCCNC(=O)COCCOCCNC(=O)COCCOCCNC(=O)CC[C@H](NC(=O)CC[C@H](NC(=O)CCCCCCCCCCCCCCCC(=O)O)C(=O)O)C(=O)O)C(=O)N[C@@H](Cc1ccccc1)C(=O)N[C@H](C(=O)N[C@@H](CC(N)=O)C(=O)N[C@@H](Cc1c[nH]c2ccccc12)C(=O)N[C@@H](CC(C)C)C(=O)N[C@@H](CC(C)C)C(=O)N[C@@H](C)C(=O)N[C@@H](CCC(N)=O)C(=O)N[C@@H](CCCNC(=N)N)C(=O)NCC(=O)O)C(C)C)[C@@H](C)CC
As for B7, the “Human GIPR cAMP EC50, HEK293T” value in assay [1] came to 0.0007 nM. Also, the “Human GLP1R cAMP EC50, HEK293T” value in assay [2] stood at 63.1 nM.

B8: Compound No. 134 (peptide)
peptide: H-Y[Aib]EGTFISDYSIALDKIAQQK([AEEA-AEEA-γGlu-γGlu-C17 diacid])FVEWLLAQRPSSGAPPPS-OH
With B8, the “Human GIPR cAMP EC50, HEK293T” value in assay [1] came out at 0.0006 nM. The “Human GLP1R cAMP EC50, HEK293T” value in assay [2] was determined as 170 nM.

B9: Compound No. 132 (peptide)
peptide: H-Y[Aib]EGTFISDYSIALDKIAQ[Aib]K([AEEA-AEEA-γGlu-γGlu-C17 diacid])FVEWLLAQRG-OH
Consider B9, for which the “Human GIPR cAMP EC50, HEK293T” value in assay [1] amounted to 0.0009 nM. Also, in assay [2], the “Human GLP1R cAMP EC50, HEK293T” value worked out at 66.1 nM.

B10: Compound No. 131 (peptide)
peptide: H-Y[Aib]EGTFISDYSIALDK[Aib]AQAK([AEEA-AEEA-γGlu-γGlu-C17 diacid])FVEWLLAQRG-OH
SMILES: CC[C@H](C)[C@H](NC(=O)[C@H](CO)NC(=O)[C@H](Cc1ccc(O)cc1)NC(=O)[C@H](CC(=O)O)NC(=O)[C@H](CO)NC(=O)[C@@H](NC(=O)[C@H](Cc1ccccc1)NC(=O)[C@@H](NC(=O)CNC(=O)[C@H](CCC(=O)O)NC(=O)C(C)(C)NC(=O)[C@@H](N)Cc1ccc(O)cc1)[C@@H](C)O)[C@@H](C)CC)C(=O)N[C@@H](C)C(=O)N[C@@H](CC(C)C)C(=O)N[C@@H](CC(=O)O)C(=O)N[C@@H](CCCCN)C(=O)NC(C)(C)C(=O)N[C@@H](C)C(=O)N[C@@H](CCC(N)=O)C(=O)N[C@@H](C)C(=O)N[C@@H](CCCCNC(=O)COCCOCCNC(=O)COCCOCCNC(=O)CC[C@H](NC(=O)CC[C@H](NC(=O)CCCCCCCCCCCCCCCC(=O)O)C(=O)O)C(=O)O)C(=O)N[C@@H](Cc1ccccc1)C(=O)N[C@H](C(=O)N[C@@H](CCC(=O)O)C(=O)N[C@@H](Cc1c[nH]c2ccccc12)C(=O)N[C@@H](CC(C)C)C(=O)N[C@@H](CC(C)C)C(=O)N[C@@H](C)C(=O)N[C@@H](CCC(N)=O)C(=O)N[C@@H](CCCNC(=N)N)C(=O)NCC(=O)O)C(C)C
Turning to B10, the “Human GIPR cAMP EC50, HEK293T” value in assay [1] was found to be 0.0004 nM. The “Human GLP1R cAMP EC50, HEK293T” value in assay [2] was determined as 151 nM.

B11: Compound No. 135 (peptide)
peptide: H-Y[Aib]EGTFISDYSIALDKIAQRK([AEEA-AEEA-γGlu-γGlu-C17 diacid])FVEWLLAQRPSSGAPPPS-OH
In the case of B11, the “Human GIPR cAMP EC50, HEK293T” value in assay [1] came to 0.0007 nM. Also, the “Human GLP1R cAMP EC50, HEK293T” value in assay [2] was 8.32 nM.
